Biological target: TET2 (UniProt Q6N021)
Test: co-IP of transfected HNF4α with TET2
Conditions: reference: wild type; sites S313

For HNF4α (from UniProt P41235) S313A, the “binding against the reference” value was “stronger”.

— PMC12133150
